Laboratory results as given in patent US20100203046A1 (Biogen, published 2010).
Read-outs that look alike come from different tables or passages of the source.

Assays:
[1] = target: T1, GST-tagged FcγRIII, CD16a (V158) (UniProt P08637 17-208, limits assumed); test: AlphaScreen competition vs huIgG1 beads, purified
T1 construct: the canonical entry carries F there; Captured by biotinylated anti-GST mAb on streptavidin donor beads; also called GST-FcγRIII; not shown: GST tag
Experimental: The relative binding affinities to FcγRIII (CD16), of the variant antibodies, was determined using an AlphaScreen assay (Amplified Luminescent Proximity Homogeneous Assay, PerkinElmer, MA, USA). Laser excitation of a donor bead excites oxygen, which if in close proximity to an acceptor bead generates a cascade of chemiluminescent events, ultimately leading to fluorescence emission at 520-620 nm. […] The reaction was carried out for one hour in a 25 μl volume and plates were read in the Fusion Alpha reader (PerkinElmer).

[2] = target: T2, human FcγRIII (CD16), CD16a (F158), on CD16-transfected Jurkat cells (human, UniProt P08637 17-254); test: CD16 bridging assay, purified
T2 construct: whole, on cells
T2 sequence (P08637 17-254): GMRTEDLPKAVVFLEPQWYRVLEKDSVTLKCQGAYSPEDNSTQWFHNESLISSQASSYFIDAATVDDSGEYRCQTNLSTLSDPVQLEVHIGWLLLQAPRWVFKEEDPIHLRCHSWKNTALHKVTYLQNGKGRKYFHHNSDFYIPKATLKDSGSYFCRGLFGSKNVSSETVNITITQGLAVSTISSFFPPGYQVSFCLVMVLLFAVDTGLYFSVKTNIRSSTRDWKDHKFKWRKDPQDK

[3] = target: T2, human FcγRIII (CD16), CD16a (F158), on …; test: CD16 bridging assay, transient
human C1q (Sigma C0660) [4] = target: T3, human C1q (Sigma C0660) (human, UniProt P02745 23-245; P02746 28-253; P02747 29-245); test: C1q ELISA on CD2, purified
T3 construct: Bought protein; also called complement protein C1q
Experimental: (§1) The C1q binding assay was performed by coating 96 well Maxisorb ELISA plates (Nalge-Nunc Rochester, N.Y., USA) with 50 μl recombinant soluble human CD2 at 10 μg/ml overnight at 4° C. in PBS. The wells were aspirated and washed three times with wash buffer (PBS, 0.05% Tween 20) and blocked for >1 h with 200 μ/well of block/diluent buffer (0.1 M Na₂HPO₄, pH 7, 0.1 M NaCl, 0.05% Tween 20, 0.1% gelatin). The antibody to be tested was diluted in block/diluent buffer starting at 15 μg/ml with 3-fold dilutions. 50 μl were added per well, and the plates incubated for 2 h at room temperature. After aspirating and washing as above, 50 μl/well of 2 μg/ml of Sigma human C1q (C0660) diluted in block/diluent buffer was added and incubated for 1.5 h at room temperature. After aspirating and washing as above, 50 μl/well of chicken anti human C1q (Cedarlane laboratories CL2101AP), diluted 2,000-fold in block/diluent buffer, was added. After incubation for 1.5 h at room temperature, the wells were aspirated and washed as above. 50 μl/well of donkey F(ab′)₂ anti chicken IgY HRP conjugate (Jackson ImmunoResearch 703-036-155) diluted to 1:5,000 in block/diluent was then added, and the wells incubated for 1 h at room temperature. After aspirating and washing as above, 100 μl TMB substrate (420 μM TMB, 0.004% H₂O₂ in 0.1 M sodium acetate/citric acid buffer, pH 4.9) was added and incubated for 2 min before the reaction was stopped with 100 μl 2 N sulfuric acid. The absorbance was read at 450 nm with a Softmax P instrument, and Softmax software was used to determine the relative binding affinity (C value) with a 4-parameter fit.

[5] = target: T4, human FcγRI (CD64) on IFNγ-activated U937 cells (human, UniProt P12314 16-374); test: CD64 bridging assay, purified
T4 construct: whole, on cells; also called FcγR1
T4 sequence (P12314 16-374): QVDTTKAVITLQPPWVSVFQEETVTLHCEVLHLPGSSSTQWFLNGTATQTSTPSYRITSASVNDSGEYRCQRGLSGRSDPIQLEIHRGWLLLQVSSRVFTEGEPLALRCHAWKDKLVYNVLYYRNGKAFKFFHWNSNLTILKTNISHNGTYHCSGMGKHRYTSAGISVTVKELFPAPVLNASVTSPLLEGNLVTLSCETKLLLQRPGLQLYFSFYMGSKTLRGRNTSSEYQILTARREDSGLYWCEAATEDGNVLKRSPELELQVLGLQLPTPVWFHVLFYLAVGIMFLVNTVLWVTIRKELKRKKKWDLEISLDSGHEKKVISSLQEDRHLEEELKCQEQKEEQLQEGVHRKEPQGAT

[6] = target: Human FcγRIIIa on natural killer (NK) cells of a donor (human, UniProt P08637 17-254); test: cell-based or functional assay
[7] = target: T2, human FcγRIII (CD16), CD16a (F158), on …; test: summary of Table 3 assays
[8] = target: T5, human FcγRIIb (CD32b) on CHO-FcγRII cells (human, UniProt P31994 43-310); test: CD32b bridging assay, purified
T5 construct: whole, on cells
T5 sequence (looked up): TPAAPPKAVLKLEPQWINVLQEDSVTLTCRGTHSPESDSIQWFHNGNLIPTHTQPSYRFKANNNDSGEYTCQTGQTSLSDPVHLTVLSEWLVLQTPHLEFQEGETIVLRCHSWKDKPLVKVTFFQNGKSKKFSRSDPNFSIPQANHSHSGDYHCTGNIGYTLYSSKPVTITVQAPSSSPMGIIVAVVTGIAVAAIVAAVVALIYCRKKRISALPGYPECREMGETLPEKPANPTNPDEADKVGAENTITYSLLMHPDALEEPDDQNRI

[9] = target: T2, human FcγRIII (CD16), CD16a (F158), on …; test: CD16 bridging assay, transient; remark: listed apart in the source
human C1q (Sigma C0660) [10] = target: T3, human C1q (Sigma C0660); test: C1q ELISA on CD2, transient
Experimental: as §1

human C1q (Sigma C0660) [11] = target: T3, human C1q (Sigma C0660); test: summary of Table 6 assays
[12] = target: T2, human FcγRIII (CD16), CD16a (F158), on …; test: summary of Table 6 assays
[13] = target: T2, human FcγRIII (CD16), CD16a (F158), on …; test: CD16 bridging assay, purified; remark: listed apart in the source
[14] = target: T2, human FcγRIII (CD16), CD16a (F158), on …; test: CD16 bridging assay, transient; remark: listed apart in the source
[15] = target: T2, human FcγRIII (CD16), CD16a (F158), on …; test: summary of Table 5 assays
[16] = target: T1, GST-tagged FcγRIII, CD16a (V158); test: summary of Table 4 assays (CD16a)
[17] = target: T2, human FcγRIII (CD16), CD16a (F158), on …; test: CD16 bridging assay, purified; remark: listed apart in the source
[18] = target: T2, human FcγRIII (CD16), CD16a (F158), on …; test: CD16 bridging assay, transient; remark: listed apart in the source

T1 sequence (P08637 17-208 F176V limits assumed): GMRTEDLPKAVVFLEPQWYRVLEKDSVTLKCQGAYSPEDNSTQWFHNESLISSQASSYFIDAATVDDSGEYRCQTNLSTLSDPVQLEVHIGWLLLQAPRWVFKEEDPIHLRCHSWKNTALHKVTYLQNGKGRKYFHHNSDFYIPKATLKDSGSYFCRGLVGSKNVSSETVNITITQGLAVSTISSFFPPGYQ

B1: chCB6-huIgG1 I332E (antibody, name in EU numbering)
heavy: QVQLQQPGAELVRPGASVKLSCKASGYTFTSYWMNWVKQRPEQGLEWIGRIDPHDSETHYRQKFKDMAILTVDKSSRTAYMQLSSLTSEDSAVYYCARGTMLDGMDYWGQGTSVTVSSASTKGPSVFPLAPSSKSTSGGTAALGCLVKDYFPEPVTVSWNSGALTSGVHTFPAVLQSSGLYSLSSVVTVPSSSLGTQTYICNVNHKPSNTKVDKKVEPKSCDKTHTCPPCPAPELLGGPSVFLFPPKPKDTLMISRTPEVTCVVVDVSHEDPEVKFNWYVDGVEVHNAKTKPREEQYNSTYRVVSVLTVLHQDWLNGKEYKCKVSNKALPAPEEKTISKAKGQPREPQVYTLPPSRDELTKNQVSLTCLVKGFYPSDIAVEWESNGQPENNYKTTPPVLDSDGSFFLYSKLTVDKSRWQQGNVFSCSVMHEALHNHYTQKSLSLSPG
light: QIVLTQSPAIMSASPGEKVTMTCRASSSVSHMHWYQQKSGTSPKRWIYDTSKLASGVPARFSGSGSGTSYSLTISSVEAEDAATYYCQQWSSNPLTFGAGTKLELKRTVAAPSVFIFPPSDEQLKSGTASVVCLLNNFYPREAKVQWKVDNALQSGNSQESVTEQDSKDSTYSLSSTLTLSKADYEKHKVYACEVTHQGLSSPVTKSFNRGEC
notes: copies: 2 + 2
fold increase in binding vs WT [1]: 8 fold
fold increase in binding vs WT [2]: 7 fold
fold increase in binding vs WT [3]: 20 fold
binding result (human C1q (Sigma C0660) [4]): binds
binding result [5]: binds
ADCC NK cell, purified (fold increase vs WT) [6]: 24 fold

B2: chCB6-huIgG1 L328D (antibody, name in EU numbering)
heavy: not shown
light: B1 light
notes: copies: 2 + 2
fold decrease in binding vs WT [7]: > 10 fold
binding result [3]: no binding
binding result (human C1q (Sigma C0660) [4]): no binding
binding result [5]: binds

B3: chCB6-huIgG1 L328E (antibody, name in EU numbering)
heavy: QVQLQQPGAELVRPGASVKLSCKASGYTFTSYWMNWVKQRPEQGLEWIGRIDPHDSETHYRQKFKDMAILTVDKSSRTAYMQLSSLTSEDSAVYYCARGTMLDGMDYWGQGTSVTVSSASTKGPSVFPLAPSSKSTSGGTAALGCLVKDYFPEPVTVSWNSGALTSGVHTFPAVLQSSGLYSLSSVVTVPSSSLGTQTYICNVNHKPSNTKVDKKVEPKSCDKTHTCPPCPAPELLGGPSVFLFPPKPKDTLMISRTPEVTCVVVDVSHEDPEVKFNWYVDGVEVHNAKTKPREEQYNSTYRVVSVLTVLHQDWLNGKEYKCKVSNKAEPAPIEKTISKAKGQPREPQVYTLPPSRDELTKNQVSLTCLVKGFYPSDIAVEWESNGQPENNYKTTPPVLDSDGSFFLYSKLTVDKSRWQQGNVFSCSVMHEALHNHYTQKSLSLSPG
light: B1 light
notes: copies: 2 + 2
fold decrease in binding vs WT [7]: > 10 fold
fold decrease in binding vs WT [2]: 9 fold
fold decrease in binding vs WT [3]: 30 fold
binding result (human C1q (Sigma C0660) [4]): no binding
fold decrease in binding vs WT [5]: 14 fold

B4: chCB6-huIgG1 L328N (antibody, name in EU numbering)
heavy: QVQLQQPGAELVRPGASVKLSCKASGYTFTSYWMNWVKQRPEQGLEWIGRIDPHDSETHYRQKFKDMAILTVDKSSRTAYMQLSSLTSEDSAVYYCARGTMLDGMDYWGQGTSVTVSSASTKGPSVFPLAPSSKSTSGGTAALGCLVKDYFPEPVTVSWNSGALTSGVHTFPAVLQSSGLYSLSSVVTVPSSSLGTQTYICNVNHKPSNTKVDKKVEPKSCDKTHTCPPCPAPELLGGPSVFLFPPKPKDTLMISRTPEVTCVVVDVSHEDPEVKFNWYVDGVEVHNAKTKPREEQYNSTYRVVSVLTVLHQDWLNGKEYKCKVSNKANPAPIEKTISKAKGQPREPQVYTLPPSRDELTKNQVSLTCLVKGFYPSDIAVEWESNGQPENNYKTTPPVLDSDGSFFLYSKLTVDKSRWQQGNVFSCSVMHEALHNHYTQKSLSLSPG
light: B1 light
notes: copies: 2 + 2
fold decrease in binding vs WT [2]: 10 fold
fold decrease in binding vs WT [8]: 3 fold
fold decrease in binding vs WT [3]: 2 fold
binding result (human C1q (Sigma C0660) [4]): no binding
binding result [5]: binds

B5: chCB6-huIgG1 triple mutant S298A/E333A/K334A (antibody, name in EU numbering)
heavy: QVQLQQPGAELVRPGASVKLSCKASGYTFTSYWMNWVKQRPEQGLEWIGRIDPHDSETHYRQKFKDMAILTVDKSSRTAYMQLSSLTSEDSAVYYCARGTMLDGMDYWGQGTSVTVSSASTKGPSVFPLAPSSKSTSGGTAALGCLVKDYFPEPVTVSWNSGALTSGVHTFPAVLQSSGLYSLSSVVTVPSSSLGTQTYICNVNHKPSNTKVDKKVEPKSCDKTHTCPPCPAPELLGGPSVFLFPPKPKDTLMISRTPEVTCVVVDVSHEDPEVKFNWYVDGVEVHNAKTKPREEQYNATYRVVSVLTVLHQDWLNGKEYKCKVSNKALPAPIAATISKAKGQPREPQVYTLPPSRDELTKNQVSLTCLVKGFYPSDIAVEWESNGQPENNYKTTPPVLDSDGSFFLYSKLTVDKSRWQQGNVFSCSVMHEALHNHYTQKSLSLSPG
light: B1 light
notes: Assay control; triple mutant as described by Shields et al; also called Triple Mutation S298A, E333A, K334A; copies: 2 + 2
fold increase in binding vs WT [1]: 4 fold
fold increase in binding vs WT [2]: 5 fold
fold increase in binding vs WT [3]: 10 fold
fold decrease in binding vs WT (human C1q (Sigma C0660) [4]): 2 fold
fold decrease in binding vs WT [5]: 4 fold
ADCC NK cell, purified (fold increase vs WT) [6]: 21 fold

B6: chCB6-huIgG1 A378W (antibody, name in EU numbering)
heavy: not shown
light: B1 light
notes: copies: 2 + 2
binding result [9]: binds
fold increase in binding vs WT (human C1q (Sigma C0660) [10]): 7 fold
fold increase in binding vs WT (human C1q (Sigma C0660) [11]): > 5 fold

B7: chCB6-huIgG1 D376K (antibody, name in EU numbering)
heavy: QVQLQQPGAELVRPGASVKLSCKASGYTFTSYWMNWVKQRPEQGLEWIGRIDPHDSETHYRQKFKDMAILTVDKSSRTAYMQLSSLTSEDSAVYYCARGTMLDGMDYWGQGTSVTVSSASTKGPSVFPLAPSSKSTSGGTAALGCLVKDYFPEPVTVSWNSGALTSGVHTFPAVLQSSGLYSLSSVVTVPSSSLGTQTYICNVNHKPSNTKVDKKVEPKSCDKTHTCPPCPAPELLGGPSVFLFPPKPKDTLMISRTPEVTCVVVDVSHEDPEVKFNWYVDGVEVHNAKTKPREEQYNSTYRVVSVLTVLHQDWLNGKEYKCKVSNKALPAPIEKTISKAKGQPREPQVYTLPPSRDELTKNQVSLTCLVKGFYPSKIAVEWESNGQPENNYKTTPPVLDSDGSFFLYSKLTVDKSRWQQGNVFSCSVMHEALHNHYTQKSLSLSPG
light: B1 light
notes: copies: 2 + 2
fold decrease in binding vs WT [9]: 15 fold
binding result (human C1q (Sigma C0660) [10]): binds
fold decrease in binding vs WT [12]: > 10 fold

B8: chCB6-huIgG1 D376W (antibody, name in EU numbering)
heavy: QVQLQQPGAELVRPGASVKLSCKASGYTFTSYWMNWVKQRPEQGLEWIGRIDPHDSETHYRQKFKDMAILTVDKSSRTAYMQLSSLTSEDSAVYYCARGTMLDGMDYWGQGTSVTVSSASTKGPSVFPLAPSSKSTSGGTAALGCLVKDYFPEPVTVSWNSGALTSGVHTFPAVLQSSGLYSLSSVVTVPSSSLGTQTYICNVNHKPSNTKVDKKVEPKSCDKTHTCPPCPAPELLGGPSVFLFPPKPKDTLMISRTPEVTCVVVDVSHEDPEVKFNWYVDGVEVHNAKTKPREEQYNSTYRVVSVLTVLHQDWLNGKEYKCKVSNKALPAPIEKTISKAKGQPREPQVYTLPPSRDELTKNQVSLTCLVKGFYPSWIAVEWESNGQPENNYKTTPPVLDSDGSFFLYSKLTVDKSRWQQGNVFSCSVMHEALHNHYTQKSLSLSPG
light: B1 light
notes: copies: 2 + 2
fold decrease in binding vs WT [9]: 15 fold
fold decrease in binding vs WT [13]: 3 fold
binding result (human C1q (Sigma C0660) [10]): no binding
fold decrease in binding vs WT [12]: > 10 fold

B9: chCB6-huIgG1 D376Y (antibody, name in EU numbering)
heavy: not shown
light: B1 light
notes: copies: 2 + 2
fold decrease in binding vs WT [13]: 3 fold
fold decrease in binding vs WT (human C1q (Sigma C0660) [4]): 3 fold

B10: chCB6-huIgG1 E294S (antibody, name in EU numbering)
heavy: not shown
light: B1 light
notes: copies: 2 + 2
fold decrease in binding vs WT [14]: 12 fold
fold decrease in binding vs WT [15]: > 10 fold

B11: chCB6-huIgG1 S239D/I332D (antibody, name in EU numbering)
heavy: not shown
light: B1 light
notes: copies: 2 + 2
fold increase in binding vs WT [1]: 15 fold
binding result (human C1q (Sigma C0660) [4]): binds
fold increase in binding vs WT [16]: > 10 fold
fold increase in binding vs WT [17]: 6 fold
fold increase in binding vs WT [18]: 4 fold

B12: chCB6-huIgG1 S239D/I332E (antibody, name in EU numbering)
heavy: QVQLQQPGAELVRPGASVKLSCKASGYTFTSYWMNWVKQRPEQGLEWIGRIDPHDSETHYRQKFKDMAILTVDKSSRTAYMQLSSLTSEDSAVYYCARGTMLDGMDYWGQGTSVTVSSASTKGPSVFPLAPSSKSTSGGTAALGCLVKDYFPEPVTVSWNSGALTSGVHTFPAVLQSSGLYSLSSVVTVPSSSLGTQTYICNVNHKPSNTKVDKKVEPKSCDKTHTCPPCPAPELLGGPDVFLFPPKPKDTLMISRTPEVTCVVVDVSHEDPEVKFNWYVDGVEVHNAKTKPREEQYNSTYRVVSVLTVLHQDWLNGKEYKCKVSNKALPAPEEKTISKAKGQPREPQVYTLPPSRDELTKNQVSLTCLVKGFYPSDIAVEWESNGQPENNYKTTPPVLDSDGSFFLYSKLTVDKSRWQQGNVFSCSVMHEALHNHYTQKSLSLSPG
light: B1 light
notes: copies: 2 + 2
fold increase in binding vs WT [1]: 26 fold
binding result (human C1q (Sigma C0660) [4]): binds
fold increase in binding vs WT [16]: > 10 fold
fold increase in binding vs WT [17]: 8 fold
fold increase in binding vs WT [18]: 12 fold

B13: chCB6-huIgG1 T299C (antibody, name in EU numbering)
heavy: not shown
light: B1 light
notes: Assay control; copies: 2 + 2
binding result [1]: no binding
binding result [8]: no binding
binding result [3]: no binding
binding result (human C1q (Sigma C0660) [4]): no binding
binding result [5]: no binding

B14: chCB6-huIgG1 Y296H (antibody, name in EU numbering)
heavy: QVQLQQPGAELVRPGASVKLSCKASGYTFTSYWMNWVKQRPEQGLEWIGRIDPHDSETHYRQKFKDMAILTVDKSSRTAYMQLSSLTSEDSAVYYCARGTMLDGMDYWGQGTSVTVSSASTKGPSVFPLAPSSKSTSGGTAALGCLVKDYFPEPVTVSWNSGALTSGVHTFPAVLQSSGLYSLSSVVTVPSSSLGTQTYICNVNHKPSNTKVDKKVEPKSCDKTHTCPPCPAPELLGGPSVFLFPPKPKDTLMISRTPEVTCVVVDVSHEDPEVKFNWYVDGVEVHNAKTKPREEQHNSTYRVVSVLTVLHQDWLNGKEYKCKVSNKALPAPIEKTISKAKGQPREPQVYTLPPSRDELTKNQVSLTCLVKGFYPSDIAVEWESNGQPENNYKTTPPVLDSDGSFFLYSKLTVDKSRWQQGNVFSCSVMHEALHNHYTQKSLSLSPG
light: B1 light
notes: copies: 2 + 2
fold decrease in binding vs WT [14]: 18 fold
fold decrease in binding vs WT (human C1q (Sigma C0660) [10]): 3 fold
fold decrease in binding vs WT [15]: > 10 fold

B15: chCB6-huIgG1 A378F (antibody, name in EU numbering)
heavy: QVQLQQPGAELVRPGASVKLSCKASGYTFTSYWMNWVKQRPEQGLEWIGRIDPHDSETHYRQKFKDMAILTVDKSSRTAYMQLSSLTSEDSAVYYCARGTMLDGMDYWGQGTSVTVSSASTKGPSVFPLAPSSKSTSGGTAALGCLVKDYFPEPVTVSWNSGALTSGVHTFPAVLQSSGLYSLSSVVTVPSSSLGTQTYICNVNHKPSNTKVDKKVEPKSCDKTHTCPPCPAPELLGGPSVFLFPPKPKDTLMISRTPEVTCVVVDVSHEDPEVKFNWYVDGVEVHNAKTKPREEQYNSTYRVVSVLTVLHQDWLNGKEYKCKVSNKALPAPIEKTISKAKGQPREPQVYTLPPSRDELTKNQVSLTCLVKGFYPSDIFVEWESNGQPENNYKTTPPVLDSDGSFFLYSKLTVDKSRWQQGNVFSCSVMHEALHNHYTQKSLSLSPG
light: B1 light
notes: copies: 2 + 2
binding result [9]: binds
fold increase in binding vs WT (human C1q (Sigma C0660) [10]): 6 fold
fold increase in binding vs WT (human C1q (Sigma C0660) [11]): > 5 fold

B16: chCB6-huIgG1 A378Y (antibody, name in EU numbering)
heavy: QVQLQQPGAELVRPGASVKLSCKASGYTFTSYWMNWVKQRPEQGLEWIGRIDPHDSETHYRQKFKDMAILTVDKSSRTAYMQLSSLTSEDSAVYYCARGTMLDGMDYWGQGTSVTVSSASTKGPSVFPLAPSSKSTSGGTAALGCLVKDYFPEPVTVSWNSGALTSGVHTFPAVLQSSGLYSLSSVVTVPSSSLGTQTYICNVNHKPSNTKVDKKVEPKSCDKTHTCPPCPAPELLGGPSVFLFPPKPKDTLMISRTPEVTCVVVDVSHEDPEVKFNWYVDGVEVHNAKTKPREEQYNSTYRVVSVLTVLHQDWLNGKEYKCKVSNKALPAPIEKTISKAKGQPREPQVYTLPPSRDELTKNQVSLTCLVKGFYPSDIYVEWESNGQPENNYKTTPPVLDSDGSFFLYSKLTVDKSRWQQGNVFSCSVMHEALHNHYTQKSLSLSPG
light: B1 light
notes: copies: 2 + 2
binding result [9]: binds
fold increase in binding vs WT (human C1q (Sigma C0660) [10]): 6 fold
fold increase in binding vs WT (human C1q (Sigma C0660) [11]): > 5 fold

B17: chCB6-huIgG1 R301Q (antibody, name in EU numbering)
heavy: not shown
light: B1 light
notes: copies: 2 + 2
fold decrease in binding vs WT [14]: 13 fold
binding result (human C1q (Sigma C0660) [10]): binds
fold decrease in binding vs WT [15]: > 10 fold
